{
  "source": "patent US20090280138A1",
  "about": "(OXFORD BIOMEDICA UK, published 2009)",
  "binders": {"B1": {"name": "5T4 9-mer peptide 197 (RDHMEGYHY) (peptide)", "peptide": "RDHMEGYHY"}, "B2": {"name": "5T4 9-mer peptide 159 (GKDRLTCAY) (peptide)", "peptide": "GKDRLTCAY"}, "B3": {"name": "5T4 9-mer peptide 170 (SADLDCDPI) (peptide)", "peptide": "SADLDCDPI"}, "B4": {"name": "5T4 9-mer peptide 162 (CAYPEKMRN) (peptide)", "peptide": "CAYPEKMRN"}, "B5": {"name": "5T4 9-mer peptide 150 (DCHMADMVT) (peptide)", "peptide": "DCHMADMVT"}, "B6": {"name": "5T4 9-mer peptide 190 (KGIKKWMHN) (peptide)", "peptide": "KGIKKWMHN"}, "B7": {"name": "5T4 9-mer peptide 152 (ADMVTWLKE) (peptide)", "peptide": "ADMVTWLKE"}, "B8": {"name": "5T4 9-mer peptide 196 (ACRDHMEGY) (peptide)", "peptide": "ACRDHMEGY"}, "B9": {"name": "5T4 9-mer peptide 148 (PWVCDCHMA) (peptide)", "peptide": "PWVCDCHMA"}, "B10": {"name": "5T4 9-mer peptide 184 (GAIFLLVLY) (peptide)", "peptide": "GAIFLLVLY"}, "B11": {"name": "5T4 9-mer peptide 49 (peptide)", "peptide": "FLTGNQLAV"}, "B12": {"name": "5T4 9 mer peptide 99 (GMVVAALLA) (peptide)", "peptide": "GMVVAALLA"}, "B13": {"name": "5T4 9 mer peptide 32 (PALCECSEA) (peptide)", "peptide": "PALCECSEA"}, "B14": {"name": "5T4 9 mer peptide 90 (ILNHIVPPE) (peptide)", "peptide": "ILNHIVPPE"}, "B15": {"name": "5T4 9 mer peptide 49 (FLTGNQLAV) (peptide)", "peptide": "FLTGNQLAV"}, "B16": {"name": "5T4 9 mer peptide 77 (PLADLSPFA) (peptide)", "peptide": "PLADLSPFA"}, "B17": {"name": "5T4 9 mer peptide 120 (LDLSNNSLV) (peptide)", "peptide": "LDLSNNSLV"}, "B18": {"name": "5T4 9 mer peptide 22 (SSAPFLASA) (peptide)", "peptide": "SSAPFLASA"}, "B19": {"name": "5T4 9 mer peptide 81 (AFSGSNASV) (peptide)", "peptide": "AFSGSNASV"}},
  "data": [
    {"target": "T1, MHC class I molecule A*0101 (biotin (bound to streptavidin-coated plate))", "T1 construct": "iTopia monomer stripped of placeholder peptide and b2M, then reconstituted with test peptide and fresh b2M; also called A1; HLA-A1", "experiment": "iTopia peptide binding assay", "method_in_brief": "(§1)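 Plates coated with MHC class I molecules used to test 9-mer peptides for binding under standardized optimal conditions via the iTopia Epitope Discovery System. Read by ELISA in duplicate with allele-specific positive controls; binders taken on to affinity and off-rate testing.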", "values": [
      {"binder": "B1", "binding, % of positive control peptide": "11 % of positive control"},
      {"binder": "B2", "binding, % of positive control peptide": "3 % of positive control"},
      {"binder": "B3", "binding, % of positive control peptide": "0 % of positive control"},
      {"binder": "B4", "binding, % of positive control peptide": "0 % of positive control"},
      {"binder": "B5", "binding, % of positive control peptide": "0 % of positive control"},
      {"binder": "B6", "binding, % of positive control peptide": "3 % of positive control"},
      {"binder": "B7", "binding, % of positive control peptide": "0 % of positive control"},
      {"binder": "B8", "binding, % of positive control peptide": "3 % of positive control"},
      {"binder": "B9", "binding, % of positive control peptide": "0 % of positive control"},
      {"binder": "B10", "binding, % of positive control peptide": "0 % of positive control"}
    ]},
    {"target": "T2, MHC class I molecule A*0201 (biotin (bound to streptavidin-coated plate))", "T2 construct": "iTopia monomer stripped of placeholder peptide and b2M, then reconstituted with test peptide and fresh b2M; also called A2; HLA-A2", "experiment": "iTopia peptide binding assay", "method_in_brief": "as §1", "values": [
      {"binder": "B1", "binding, % of positive control peptide": "6 % of positive control"},
      {"binder": "B2", "binding, % of positive control peptide": "6 % of positive control"},
      {"binder": "B3", "binding, % of positive control peptide": "4 % of positive control"},
      {"binder": "B4", "binding, % of positive control peptide": "11 % of positive control"},
      {"binder": "B5", "binding, % of positive control peptide": "7 % of positive control"},
      {"binder": "B6", "binding, % of positive control peptide": "14 % of positive control"},
      {"binder": "B7", "binding, % of positive control peptide": "6 % of positive control"},
      {"binder": "B8", "binding, % of positive control peptide": "8 % of positive control"},
      {"binder": "B9", "binding, % of positive control peptide": "0 % of positive control"},
      {"binder": "B10", "binding, % of positive control peptide": "5 % of positive control"}
    ]},
    {"target": "T3, MHC class I molecule A*0301 (biotin (bound to streptavidin-coated plate))", "T3 construct": "iTopia monomer stripped of placeholder peptide and b2M, then reconstituted with test peptide and fresh b2M; also called A3; HLA-A3", "experiment": "iTopia peptide binding assay", "method_in_brief": "as §1", "values": [
      {"binder": "B1", "binding, % of positive control peptide": "3 % of positive control"},
      {"binder": "B2", "binding, % of positive control peptide": "6 % of positive control"},
      {"binder": "B3", "binding, % of positive control peptide": "4 % of positive control"},
      {"binder": "B4", "binding, % of positive control peptide": "4 % of positive control"},
      {"binder": "B5", "binding, % of positive control peptide": "3 % of positive control"},
      {"binder": "B6", "binding, % of positive control peptide": "3 % of positive control"},
      {"binder": "B7", "binding, % of positive control peptide": "4 % of positive control"},
      {"binder": "B8", "binding, % of positive control peptide": "4 % of positive control"},
      {"binder": "B9", "binding, % of positive control peptide": "0 % of positive control"},
      {"binder": "B10", "binding, % of positive control peptide": "5 % of positive control"}
    ]},
    {"target": "T4, MHC class I molecule B*0702 (biotin (bound to streptavidin-coated plate))", "T4 construct": "iTopia monomer stripped of placeholder peptide and b2M, then reconstituted with test peptide and fresh b2M; also called B7; HLA-B7", "experiment": "iTopia peptide binding assay", "method_in_brief": "as §1", "values": [
      {"binder": "B1", "binding, % of positive control peptide": "5 % of positive control"},
      {"binder": "B2", "binding, % of positive control peptide": "4 % of positive control"},
      {"binder": "B3", "binding, % of positive control peptide": "3 % of positive control"},
      {"binder": "B4", "binding, % of positive control peptide": "3 % of positive control"},
      {"binder": "B5", "binding, % of positive control peptide": "5 % of positive control"},
      {"binder": "B6", "binding, % of positive control peptide": "6 % of positive control"},
      {"binder": "B7", "binding, % of positive control peptide": "8 % of positive control"},
      {"binder": "B8", "binding, % of positive control peptide": "7 % of positive control"},
      {"binder": "B9", "binding, % of positive control peptide": "0 % of positive control"},
      {"binder": "B10", "binding, % of positive control peptide": "0 % of positive control"}
    ]},
    {"target": "T5, MHC class I allele A*0201 monomer (human, biotinylated, bound to streptavidin-coated plate)", "T5 construct": "also called A2; HLA-A2", "experiment": "iTopia, multiparametric iScore", "description": "(§2) The 9 mers were tested for Peptide Binding, Off Rate and Affinity using iTopia Epitope Discovery System in accordance with the manufacturer's instructions. Briefly, 96 well microtitre plates coated with MHC molecules representing different MHC alleles are used to identify candidate peptides. […] Determinations are performed in duplicate using an ELISA plate reader and included allele specific positive controls.\nFinally, multiparametric analysis is performed on the results from these assays and an iScore is generated. The iScore represents a measure of the overall quality of peptide-MHC binding, enabling candidate peptides to be ranked in order of binding quality and allowing rational prioritisation of peptides for functional cellular follow-up studies.", "values": [
      {"binder": "B11", "iScore": 0.791}
    ]},
    {"target": "T6, MHC class I molecule A*0201 (biotin (bound via biotin to streptavidin-coated plates))", "T6 construct": "also called A2; HLA-A2", "experiment": "iTopia affinity assay (ED50), peptide titration on plate-bound MHC", "description": "as §2\nDose-response curves of peptide binding to MHC were prepared by peptide titration to determine the ED50 measurement for each peptide. Values for the concentrations tested (in duplicate) were obtained as a percentage of the highest (9000×) concentration of the positive control peptide. A dose-response curve was generated using GraphPad Prism® curve fitting software, which automatically calculated the ED50 (in Molarity) for each peptide.", "units": {"EC50": "µM"}, "values": [
      {"binder": "B12", "EC50": 0.6},
      {"binder": "B13", "EC50": 4},
      {"binder": "B14", "EC50": 6},
      {"binder": "B15", "EC50": 1},
      {"binder": "B16", "EC50": 2},
      {"binder": "B17", "EC50": 20},
      {"binder": "B18", "EC50": 0.3},
      {"binder": "B19", "EC50": 7}
    ]}
  ]
}
